According to the supplement of paper PMC12338614:
± gives the uncertainty stated by the source.

B1: library; numbered along this chain (parent)
chain: MEVVDPQQLGMFTEGELMSVGMDTFIHRIDSTEVIYQPRRKRAKLIGKYLMGDLLGEGSYGKVKEVLDSETLCRRAVKILKKKKLRRIPNGEANVKKEIQLLRRLRHKNVIQLVDVLYNEEKQKMYMVMEYCVCGMQEMLDSVPEKRFPVCQAHGYFCQLIDGLEYLHSQGIVHKDIKPGNLLLTTGGTLKISDLGVAEALHPFAADDTCRTSQGSPAFQPPEIANGLDTFSGFKVDIWSAGVTLYNITTGLYPFEGDNIYKLFENIGKGSYAIPGDCGPPLSDLLKGMLEYEPAKRFSIRQIRQHSWFRKKHPPAEAPVPIPPSPDTKDRWRSMTVVPYLEDLHGADEDEDLFDIEDDIIYTQDFTVPGQVPEEEASHNGQRRGLPKAVCMNGTEAAQLSTKSRAEGRAPNPARKACSASSKIRRLSACKQQ

Variants of: B1
Assay: STK11 functional score (HeLa growth suppression), rescaled enrichment; synonymous median = 1, nonsense median = 0 (normalised score)
Conditions: with HeLa; variant type: missense
Description: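 Deep mutational scan (TileSeq/POPCode codon randomisation) of full-length codon-optimised STK11 cDNA integrated at a Bxb1 landing pad (AAVS1) in HeLa cells. Restoring functional STK11 suppresses HeLa proliferation. Variant frequencies were measured by NGS before and after about two weeks of growth. The error-corrected enrichment log-ratio was rescaled so that synonymous median = 1 and nonsense median = 0, scores above 1 were compressed, and codon-level and three biological replicate scores were combined; error is the bootstrapped standard error. Scale: synonymous median = 1, nonsense median = 0; below 0.5 = damaging.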
Work on K423V yielded an STK11 functional score of 1.28 ± 0.41. Work on L183M yielded an STK11 functional score of -0.0817 ± 0.087. With L183T the STK11 functional score was 1.1 ± 0.28. T212V was tested, and the STK11 functional score was 0.545 ± 0.091. Variant R40W has an STK11 functional score of 1.24 ± 0.38. For R40D, the STK11 functional score was 1.68 ± 0.41. Work on G180V yielded an STK11 functional score of 0.816 ± 0.089. In the case of G180W, the STK11 functional score is reported as 1.44 ± 0.15. In the case of S216N, the STK11 functional score is reported as 0.349 ± 0.12. Variant F366M has an STK11 functional score of 1.48 ± 0.27. For V114Y, the STK11 functional score was 1.59 ± 0.21. For S421G, the STK11 functional score was 1.38 ± 0.21. Work on V243N yielded an STK11 functional score of 0.56 ± 0.19. With P319M the STK11 functional score was 1.39 ± 0.12. D350E showed an STK11 functional score of 1.25 ± 0.56. In the case of D350R, the STK11 functional score is reported as 1.61 ± 0.17. D350Y was tested, and the STK11 functional score was 1.45 ± 0.34. Variant K311T has an STK11 functional score of 1.3 ± 0.18. Variant D141F has an STK11 functional score of 1.52 ± 0.12. In the case of V320I, the STK11 functional score is reported as 1.59 ± 0.17. G135V showed an STK11 functional score of 1.29 ± 0.3. Variant G135T has an STK11 functional score of 1.66 ± 0.28. With C210H the STK11 functional score was 1.42 ± 0.24. C210M was tested, and the STK11 functional score was 0.956 ± 0.14. For P324W, the STK11 functional score was 0.731 ± 0.099. For I361E, the STK11 functional score was 1.52 ± 0.26. Variant A389T has an STK11 functional score of 1.25 ± 0.3. In the case of K82Q, the STK11 functional score is reported as 1.7 ± 0.18. K82T showed an STK11 functional score of 1.56 ± 0.17. A398D gave an STK11 functional score of 1.18 ± 0.25. For I248C, the STK11 functional score was 1 ± 0.24. I248Q was tested, and the STK11 functional score was 1.25 ± 0.49. D327S showed an STK11 functional score of 1.58 ± 0.26. Variant D327W has an STK11 functional score of 1.57 ± 0.12. In the case of I224S, the STK11 functional score is reported as 1.31 ± 0.28. With K83P the STK11 functional score was 1.64 ± 0.41. For E375T, the STK11 functional score was 0.94 ± 0.28. With H345S the STK11 functional score was 1.18 ± 0.2. Work on M125W yielded an STK11 functional score of 1.25 ± 0.15. Variant M139R has an STK11 functional score of 0.918 ± 0.37. M139Q gave an STK11 functional score of 1.11 ± 0.32. M139E showed an STK11 functional score of 0.269 ± 0.09. With L54G the STK11 functional score was 1.22 ± 0.41. In the case of S169W, the STK11 functional score is reported as 1.25 ± 0.35. S142C was tested, and the STK11 functional score was 1.17 ± 0.2. P6F showed an STK11 functional score of 0.754 ± 0.11. Variant P387Y has an STK11 functional score of 0.935 ± 0.43. In the case of I424V, the STK11 functional score is reported as 1.33 ± 0.23. D277G showed an STK11 functional score of 1.16 ± 0.2. For R147D, the STK11 functional score was -0.33 ± 0.084. Work on I111M yielded an STK11 functional score of 0.886 ± 0.36. L282A gave an STK11 functional score of 0.846 ± 0.18. Q305Y showed an STK11 functional score of 1.53 ± 0.17. H313I showed an STK11 functional score of 1.45 ± 0.24. Variant H313D has an STK11 functional score of 1.17 ± 0.29. Work on G227P yielded an STK11 functional score of 1.1 ± 0.52. G227D gave an STK11 functional score of 1.13 ± 0.47. In the case of H202V, the STK11 functional score is reported as 1.27 ± 0.26. For H202A, the STK11 functional score was 1.17 ± 0.49. V150T was tested, and the STK11 functional score was 0.385 ± 0.47. For S69Q, the STK11 functional score was 0.0756 ± 0.11. With F264P the STK11 functional score was 1.4 ± 0.39. With K175P the STK11 functional score was -0.179 ± 0.081. Variant E349P has an STK11 functional score of 1.41 ± 0.14. For R103G, the STK11 functional score was 0.667 ± 0.098. For M335I, the STK11 functional score was 1.18 ± 0.55. For K146Q, the STK11 functional score was 1.52 ± 0.51. K146N gave an STK11 functional score of 1.16 ± 0.26. T244R was tested, and the STK11 functional score was 0.00573 ± 0.1. With T244M the STK11 functional score was 1.38 ± 0.098. For K191W, the STK11 functional score was 0.459 ± 0.11. Variant V368P has an STK11 functional score of 1.46 ± 0.19. R87T gave an STK11 functional score of 1.48 ± 0.38. Variant G381W has an STK11 functional score of 1.05 ± 0.74. In the case of P222G, the STK11 functional score is reported as 0.489 ± 0.095. For T336V, the STK11 functional score was 1.49 ± 0.14. Work on P294W yielded an STK11 functional score of 1.36 ± 0.11. Work on L427I yielded an STK11 functional score of 1.36 ± 0.29. For F157W, the STK11 functional score was 0.714 ± 0.12. Variant P275G has an STK11 functional score of 1.14 ± 0.41. Variant L182A has an STK11 functional score of 0.345 ± 0.096. L182N showed an STK11 functional score of 1.01 ± 0.31. G171C was tested, and the STK11 functional score was 0.479 ± 0.091. T186W gave an STK11 functional score of 0.861 ± 0.12. N412A was tested, and the STK11 functional score was 1.53 ± 0.26. For R28A, the STK11 functional score was 1.52 ± 0.34. A295H was tested, and the STK11 functional score was 1.4 ± 0.17. Work on P280A yielded an STK11 functional score of 0.896 ± 0.17. G215D showed an STK11 functional score of 0.255 ± 0.12. With I356P the STK11 functional score was 1.6 ± 0.26. In the case of R384I, the STK11 functional score is reported as 1.06 ± 0.47. N393R gave an STK11 functional score of 1.07 ± 0.18. Variant N393S has an STK11 functional score of 1.09 ± 0.52. K178W showed an STK11 functional score of 0.413 ± 0.089. Work on F231A yielded an STK11 functional score of 1.61 ± 0.26. Variant E57I has an STK11 functional score of 1.15 ± 0.09. Variant R383W has an STK11 functional score of 0.781 ± 0.14. D359I was tested, and the STK11 functional score was 0.856 ± 0.075. With E65F the STK11 functional score was 1.22 ± 0.15. With E65N the STK11 functional score was 1.06 ± 0.14. N226Q gave an STK11 functional score of 1.45 ± 0.27. In the case of Y246P, the STK11 functional score is reported as -0.0491 ± 0.1. A206T showed an STK11 functional score of 0.479 ± 0.13. Work on L67A yielded an STK11 functional score of 0.924 ± 0.77. For K96R, the STK11 functional score was 1.18 ± 0.16. A414D gave an STK11 functional score of 0.946 ± 0.29. A414S was tested, and the STK11 functional score was 1.57 ± 0.18. T71I gave an STK11 functional score of 1.11 ± 0.24. For L117Q, the STK11 functional score was 1.33 ± 0.57. Work on Q7D yielded an STK11 functional score of 1.33 ± 0.08. P254R showed an STK11 functional score of 0.199 ± 0.14. P254V showed an STK11 functional score of 0.86 ± 0.31. With R415W the STK11 functional score was 1.5 ± 0.18. T32V showed an STK11 functional score of 1.41 ± 0.54. Variant G346A has an STK11 functional score of 1.57 ± 0.28. With G288D the STK11 functional score was -0.347 ± 0.084. For T230S, the STK11 functional score was 0.93 ± 0.097. Work on I267V yielded an STK11 functional score of 1.09 ± 0.29. Variant K124L has an STK11 functional score of 0.951 ± 0.13. For Y156I, the STK11 functional score was 1.04 ± 0.24. Y131I was tested, and the STK11 functional score was 1.2 ± 0.3. Variant K388T has an STK11 functional score of 1.42 ± 0.34. K388E gave an STK11 functional score of 1.42 ± 0.33. M129W gave an STK11 functional score of 0.743 ± 0.079. Work on N94F yielded an STK11 functional score of 0.728 ± 0.22. For M18R, the STK11 functional score was 0.834 ± 0.13. Variant R39N has an STK11 functional score of 0.65 ± 0.66. For F234A, the STK11 functional score was 1.35 ± 0.39. K416W showed an STK11 functional score of 0.693 ± 0.27. K416P was tested, and the STK11 functional score was 1.61 ± 0.21. For K416V, the STK11 functional score was 1.39 ± 0.36. Q399Y showed an STK11 functional score of 1.42 ± 0.2. Work on L245E yielded an STK11 functional score of -0.0467 ± 0.26. For D229Q, the STK11 functional score was 1.49 ± 0.46. For Q112W, the STK11 functional score was 0.604 ± 0.081. Variant L400F has an STK11 functional score of 1.46 ± 0.14. In the case of V3D, the STK11 functional score is reported as -0.174 ± 0.11. In the case of V173S, the STK11 functional score is reported as 1.23 ± 0.4. In the case of V95C, the STK11 functional score is reported as 0.913 ± 0.28. With S419G the STK11 functional score was 1.58 ± 0.034. With V4R the STK11 functional score was 1.32 ± 0.2. With V66I the STK11 functional score was 0.557 ± 1.1. Variant A273D has an STK11 functional score of 0.919 ± 0.14. With K41T the STK11 functional score was 1.27 ± 0.49. Variant S404E has an STK11 functional score of 1.34 ± 0.5. In the case of E121F, the STK11 functional score is reported as 0.824 ± 0.14. Variant A218C has an STK11 functional score of 0.947 ± 0.27. In the case of A218I, the STK11 functional score is reported as 0.926 ± 0.16. V143R was tested, and the STK11 functional score was 1.29 ± 0.22. With L286Q the STK11 functional score was 0.0782 ± 0.082. S283D was tested, and the STK11 functional score was 1.29 ± 0.4. K287T was tested, and the STK11 functional score was 1.25 ± 0.2. In the case of D30E, the STK11 functional score is reported as 1.13 ± 0.49. Variant Q37R has an STK11 functional score of 1.34 ± 0.29. Work on E342P yielded an STK11 functional score of 1.53 ± 0.15. P314T gave an STK11 functional score of 1.54 ± 0.17. In the case of I260N, the STK11 functional score is reported as 1.67 ± 0.52. Variant I322Y has an STK11 functional score of 0.925 ± 0.36. For V34G, the STK11 functional score was 1.08 ± 0.45. Work on Q137S yielded an STK11 functional score of 1.42 ± 0.23. V128Y was tested, and the STK11 functional score was 1.41 ± 0.23. Work on P373C yielded an STK11 functional score of 1.32 ± 0.48. Y118G showed an STK11 functional score of 1.23 ± 0.15. E120W showed an STK11 functional score of 0.626 ± 0.087. With E138C the STK11 functional score was 0.386 ± 0.081. Y292T gave an STK11 functional score of 1.68 ± 0.3. In the case of L344D, the STK11 functional score is reported as 1.46 ± 0.17.
